B1: BTBD10 (parent)
chain: DRKLHSRPRKLYKHSSTSSRIAKG

Variants of: B1
Assay: protein stability index of a GFP-peptide fusion (GPS, HEK-293T) (PSI 1-6); higher = more stable
Details: c terminus: a fixed tail appended
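Also: lentivirally expressed fusions sorted by FACS into six bins by GFP to DsRed ratio, PSI derived from sequencing read proportions per bin multiplied by bin number.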

Protein stability index, by site and new letter:
I21: P 4.16 | G 4.71 | W 3.33 | Q 3.36 | S 4.59 | M 3.77 | F 3.65 | C 3.88 | K 4.28 | D 4.6 | L 3.96 | R 3.95 | A 3.5 | N 4.03 | Y 4.48 | H 4.04 | T 4.18 | E 4.33 | V 3.74
L11: N 3.46 | F 4.91 | A 4.08 | D 3.71 | K 4.19 | W 3.67 | C 2.99 | Q 4.13 | E 4.49 | I 3.61 | V 3.82 | S 4.57 | G 4.16 | P 3.79 | H 3.93 | R 4.42 | M 4.67 | Y 3.7 | T 4.82
K13: H 3.65 | V 3.69 | T 4 | L 2.84 | A 4.04 | G 4.42 | S 3.52 | Q 4.12 | P 3.86 | Y 3.6 | F 2.77 | W 3.55 | N 3.61 | I 2.68 | D 4.23 | C 3.68 | R 3.74 | M 2.84 | E 4.47
H14: I 3.88 | N 4.43 | Y 2.79 | P 3.54 | C 4.41 | A 4.27 | M 3.67 | E 4.13 | Q 3.79 | W 3.61 | S 3.66 | T 4.19 | L 3.4 | K 3.64 | D 3.58 | R 4.05 | F 4.44
G24: N 4.3 | Y 3.33 | E 4.5 | H 3.35 | M 3.38 | T 4 | A 3.61 | F 3.19 | W 2.65 | I 3.21 | K 4.14 | C 3.3 | D 3.65 | Q 3.92 | P 4.05 | R 4 | L 3.28 | V 3.74 | S 3.65
S18: Q 3.95 | L 4.3 | K 3.4 | I 3.54 | D 4.13 | H 3.6 | T 3.65 | V 4.07 | M 3.63 | A 4.42 | C 3.27 | N 4.36 | W 2.71 | Y 2.88 | G 3.99 | R 3.63 | P 3.93 | F 3.04 | E 4.38
R20: L 3.94 | F 3.6 | T 4.13 | N 4.21 | S 3.85 | Y 3.94 | Q 4.2 | W 2.97 | D 4.28 | V 3.96 | E 4.04 | A 3.9 | C 3.39 | G 3.62 | I 3.66 | M 4.06 | K 3.92 | H 4.24 | P 3.6
R9: Q 4.11 | V 3.82 | F 3.27 | H 3.7 | M 3.74 | E 4.19 | I 3.02 | W 3.51 | L 3.85 | P 3.69 | Y 3.64 | T 3.84 | K 4.17 | N 4.13 | G 4.3 | S 4.47
S16: Y 3.45 | T 4.35 | N 4.28 | M 4 | F 2.17 | D 3.83 | K 2.94 | W 3.25 | V 4.03 | E 3.99 | C 3.43 | H 3.55 | L 3.92 | Q 4.18 | P 3.87 | A 4.32 | I 3.65 | G 3.52 | R 3.78
K10: V 3.72 | M 3.24 | L 3.77 | N 4.07 | T 3.58 | P 3.25 | Y 3.94 | H 4.07 | I 2.62 | S 4.09 | Q 4.08 | C 3.55 | R 3.97 | D 4.21 | W 3.33 | G 3.52 | A 3.67 | E 2.8 | F 3.18
Y12: R 4.21 | M 3.11 | L 3.88 | G 4.65 | D 4.27 | A 4.54 | F 4.01 | N 4.12 | W 4.1 | E 4.28 | C 3.84 | S 4.65 | Q 4.01 | K 4.72 | V 4.08 | P 4.15 | T 4.05 | H 3.78 | I 3.3
K23: V 3.31 | M 2.89 | D 3.78 | T 3.58 | L 3 | G 4.08 | S 3.41 | A 3.72 | F 3.56 | C 3.17 | I 2.92 | Y 2.98 | N 4.61 | W 3.04 | H 3.41 | Q 4.1 | R 3.27 | E 4.08 | P 3.44
S19: L 3.45 | W 3.22 | F 3.23 | K 4.18 | R 4.53 | P 4.34 | V 3.65 | T 4.4 | A 3.55 | H 3.5 | M 3.07 | C 3.62 | N 3.58 | E 4.42 | Y 2.62 | I 3.7 | Q 3.63 | D 3.93 | G 3.57
A22: T 3.55 | Q 4.15 | P 3.99 | I 3.58 | F 2.99 | M 3.44 | V 3.71 | H 3.58 | S 4.15 | L 3.03 | D 4.01 | G 3.91 | N 3.34 | C 3.11 | K 3.68 | Y 3.7 | R 4.5 | W 3.47 | E 3.67
S15: G 4.49 | W 3.1 | R 4.12 | P 4.05 | N 3.66 | Y 3.67 | I 3.43 | E 4.06 | L 3.71 | M 3.1 | F 3 | T 4.17 | Q 3.85 | D 4.22 | K 3.59 | A 4.23 | V 3.88 | H 3.25 | C 3.89
T17: W 2.2 | I 3.56 | C 3.35 | M 3.28 | F 3.24 | D 4.54 | K 4.33 | N 3.18 | V 3.81 | R 4.45 | L 4.48 | S 3.86 | E 4.41 | A 3.7 | H 3.63 | G 2.9 | Q 3.98 | Y 3.08 | P 3.88

From the supplement of paper PMC10567573
